This is an account of results in patent publication US5352603A, “Highly alkaline proteases” (Kali-Chemie AG, priority 1989, dated 1994).

Test [1] in a line: Washing test in Linitest with IEC test detergent with perborate (Example 19). The following applies: pH 10.5, 30 minutes at 45° C. Here is the method: (§1) The washing tests were carried out in a Linitest with EMPA 117 (11 cm×11 cm; polyester/cotton blended fabric, soiled with milk, blood and permanent ink) as the test fabric (purchased from the Eidgenoessische Material pruefungsanstalt, Sankt Gallen, Switzerland)- Washing was carried out with 6 g/l IEC test detergent with perborate, type 1 (Lever Sunlicht GmbH, Mannheim; composition: 6.4% by weight linear alkylsulfonates, 2.3% by weight ethoxylated fatty alcohols with 14% ethoxy groups, 2.8% by weight sodium soap, 35% by weight sodium tripolyphosphate, 6% by weight sodium silicate, 1.5% by weight magnesium silicate, 1% by weight carboxy/methylcellulose, 0.2% by weight ethylenediaminetetraacetic acid (EDTA), 0.2% by weight optical brightener (stilbene type), 16.8% by weight sodium sulfate, and 7.8% by weight water as a spray-dried powder without bleach activator plus 20% by weight sodium perborate tetrahydrate) in water having a hardness of 15° on the German hardness scale. The pH of the wash liquor was pH 10.5. The washing time was 30 minutes at 45° C., and in each case 20 U of protease (prepared as described in Example 18) were employed per 100 ml. After the washing process was complete, the pieces of fabric were rinsed three times with tap water, dried and subsequently ironed. The reflection of the pieces of test cloth was determined four times on each side.

Test [2] can be described thus: Washing test in Linitest with European-formulation detergent (Example 20). The following applies: analogous to Example 19. Here is the method:
as §1, with “side. […]” for “side.”

B1: Initial protease: non-mutated highly alkaline protease from Bacillus alcalophilus HA1 (DSM 5466), amino-acid sequence of FIG. 1 (SEQ. ID. NO. 2) (protein)
chain: MKKPLGKIVASTALLISVAFSSSIASAAEEAKEKYLIGFNEQEAVSEFVEQVEANDEVAILSEEEEVEIELLHEFETIPVLSVELSPEDVDALELDPAISYIEEDAEVTTMAQSVPWGISRVQAPAAHNRGLTGSGVKVAVLDTGISTHPDLNIRGGASFVPGEPSTQDGNGHGTHVAGTIAALNNSIGVLGVAPSAELYAVKVLGASGSGSVSSIAQGLEWAGNNGMHVANLSLGSPSPSATLEQAVNSATSRGVLVVAASGNSGAGSISYPARYANAMAVGATDQNNNRASFSQYGAGLDIVAPGVNVQSTYPGSTYASLNGTSMATPHVAGAAALVKQKNPSWSNV
Take B1: the Reflection in test [1] (6 g/l IEC test detergent with perborate, type 1, 20 U of protease per 100 ml, averages of 16 washing tests) came to 71.1%; in test [2] (detergent in a formulation suitable for Europe (anionic and non-ionic surfactant, sodium tripolyphosphate, sodium perborate)), 65.6%. The “Relative Reflection” value in test [1] (relative to initial protease = 100%, IEC test detergent with perborate, 20 U protease per 100 ml) stood at 100%; in test [2] (relative to initial protease = 100%, detergent in a formulation suitable for Europe), 100%.
